Test results reported in the supplement of paper PMC10567573.

B1: FBXO34 (parent)
chain: PRYREDPCKQCKKKYVKGDVSLCR

Variants of: B1
Assay: protein stability index of a GFP-peptide fusion (GPS, HEK-293T) (PSI 1-6); higher = more stable
Conditions: c terminus: a fixed tail appended
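Further: lentivirally expressed fusions sorted by FACS into six bins by GFP to DsRed ratio, PSI derived from sequencing read proportions per bin multiplied by bin number.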

Point of comparison: PRYREDPCKQCYKKYVKGDVSLCR, protein stability index 2.46. Against it:
- PRRREDPCKQCKKKYVKGDVSLCR — higher, 3.24
- PRQREDPCKQCKKKYVKGDVSLCR — higher, 2.74
- PRTREDPCKQCKKKYVKGDVSLCR — higher, 2.65
- PRWREDPCKQCKKKYVKGDVSLCR — higher, 2.55
- PRMREDPCKQCKKKYVKGDVSLCR — higher, 2.56
- PRSREDPCKQCKKKYVKGDVSLCR — higher, 2.8
- PRNREDPCKQCKKKYVKGDVSLCR — higher, 2.84
- PRVREDPCKQCKKKYVKGDVSLCR — lower, 2.28
- PRPREDPCKQCKKKYVKGDVSLCR — higher, 3.07
- PRYREDPCYQCKKKYVKGDVSLCR — higher, 2.6
- PRYREDPCSQCKKKYVKGDVSLCR — higher, 2.51
- PRYREDPCWQCKKKYVKGDVSLCR — lower, 2.26
- PRYREDPCQQCKKKYVKGDVSLCR — higher, 2.72
- PRYREDPCTQCKKKYVKGDVSLCR — higher, 2.66
- PRYREDPCEQCKKKYVKGDVSLCR — higher, 3.33
- PRYREDPCFQCKKKYVKGDVSLCR — lower, 2.14
- PRYREDPCGQCKKKYVKGDVSLCR — higher, 2.59
- PRYREDPCLQCKKKYVKGDVSLCR — lower, 2.42
- PRYREDPCAQCKKKYVKGDVSLCR — higher, 2.53
- PRYREDPCDQCKKKYVKGDVSLCR — higher, 2.54
- PRYREDPCNQCKKKYVKGDVSLCR — the same, 2.46
- PRYREDPCMQCKKKYVKGDVSLCR — lower, 2.45
- PRYREDPCHQCKKKYVKGDVSLCR — lower, 2.29
- PRYREDPCPQCKKKYVKGDVSLCR — lower, 2.28
- PRYREDPCVQCKKKYVKGDVSLCR — higher, 2.82
- PRYREDPCCQCKKKYVKGDVSLCR — lower, 2.35
- PRYREDPCRQCKKKYVKGDVSLCR — higher, 2.53
- PRYREDPCIQCKKKYVKGDVSLCR — lower, 2.16
- PRYREDPCKQCVKKYVKGDVSLCR — lower, 2.31
- PRYREDPCKQCTKKYVKGDVSLCR — higher, 2.57
- PRYREDPCKQCCKKYVKGDVSLCR — lower, 1.58
- PRYREDPCKQCMKKYVKGDVSLCR — lower, 2.18
- PRYREDPCKQCAKKYVKGDVSLCR — higher, 2.52
- PRYREDPCKQCRKKYVKGDVSLCR — higher, 3.54
- PRYREDPCKQCNKKYVKGDVSLCR — lower, 2.39
- PRYREDPCKQCPKKYVKGDVSLCR — higher, 3.25
- PRYREDPCKQCDKKYVKGDVSLCR — higher, 2.57
- PRYREDPCKQCLKKYVKGDVSLCR — lower, 2.28
- PRYREDPCKQCHKKYVKGDVSLCR — higher, 2.76
- PRYREDPCKQCIKKYVKGDVSLCR — lower, 2.33
- PRYREDPCKQCQKKYVKGDVSLCR — higher, 2.57
- PRYREDPCKQCSKKYVKGDVSLCR — higher, 2.54
- PRYREDPCKQCGKKYVKGDVSLCR — higher, 2.5
- PRYREDPCKQCEKKYVKGDVSLCR — higher, 2.86
- PRYREDPCKQCFKKYVKGDVSLCR — lower, 1.79
- PRYREDPCKQCWKKYVKGDVSLCR — lower, 2.37
- PRYGEDPCKQCKKKYVKGDVSLCR — higher, 3.25
- PRYLEDPCKQCKKKYVKGDVSLCR — higher, 2.89
- PRYEEDPCKQCKKKYVKGDVSLCR — higher, 3.3
- PRYTEDPCKQCKKKYVKGDVSLCR — higher, 2.97
- PRYAEDPCKQCKKKYVKGDVSLCR — higher, 3.38
- PRYCEDPCKQCKKKYVKGDVSLCR — higher, 2.94
- PRYQEDPCKQCKKKYVKGDVSLCR — higher, 2.79
- PRYHEDPCKQCKKKYVKGDVSLCR — higher, 2.96
- PRYNEDPCKQCKKKYVKGDVSLCR — higher, 2.99
- PRYDEDPCKQCKKKYVKGDVSLCR — higher, 3.17
- PRYWEDPCKQCKKKYVKGDVSLCR — lower, 2.01
- PRYVEDPCKQCKKKYVKGDVSLCR — higher, 2.77
- PRYFEDPCKQCKKKYVKGDVSLCR — higher, 2.69
- PRYSEDPCKQCKKKYVKGDVSLCR — higher, 2.78
- PRYIEDPCKQCKKKYVKGDVSLCR — higher, 2.67
- PRYYEDPCKQCKKKYVKGDVSLCR — higher, 2.66
- PRYMEDPCKQCKKKYVKGDVSLCR — higher, 2.61
- PRYKEDPCKQCKKKYVKGDVSLCR — higher, 2.79
- PRYPEDPCKQCKKKYVKGDVSLCR — higher, 2.72
- PRYREDPWKQCKKKYVKGDVSLCR — higher, 3.02
- PRYREDPVKQCKKKYVKGDVSLCR — higher, 3.61
- PRYREDPKKQCKKKYVKGDVSLCR — higher, 3.88
- PRYREDPDKQCKKKYVKGDVSLCR — higher, 4.16
- PRYREDPPKQCKKKYVKGDVSLCR — higher, 3.7
- PRYREDPRKQCKKKYVKGDVSLCR — higher, 3.81
- PRYREDPIKQCKKKYVKGDVSLCR — higher, 3.57
- PRYREDPSKQCKKKYVKGDVSLCR — higher, 3.82
- PRYREDPEKQCKKKYVKGDVSLCR — higher, 4.06
- PRYREDPAKQCKKKYVKGDVSLCR — higher, 4.08
- PRYREDPTKQCKKKYVKGDVSLCR — higher, 3.98
- PRYREDPHKQCKKKYVKGDVSLCR — higher, 3.63
- PRYREDPYKQCKKKYVKGDVSLCR — higher, 3.33
- PRYREDPMKQCKKKYVKGDVSLCR — higher, 2.95
- PRYREDPQKQCKKKYVKGDVSLCR — higher, 3.87
- PRYREDPGKQCKKKYVKGDVSLCR — higher, 4.35
- PRYREDPLKQCKKKYVKGDVSLCR — higher, 3.71
- PRYREDPNKQCKKKYVKGDVSLCR — higher, 3.86
- PRYREDPFKQCKKKYVKGDVSLCR — higher, 3.15
- PRYREDPCKQSKKKYVKGDVSLCR — higher, 4.07
- PRYREDPCKQWKKKYVKGDVSLCR — lower, 2.12
- PRYREDPCKQKKKKYVKGDVSLCR — higher, 4.09
- PRYREDPCKQRKKKYVKGDVSLCR — higher, 3.77
- PRYREDPCKQMKKKYVKGDVSLCR — higher, 3.01
- PRYREDPCKQLKKKYVKGDVSLCR — higher, 3.31
- PRYREDPCKQIKKKYVKGDVSLCR — higher, 3.01
- PRYREDPCKQFKKKYVKGDVSLCR — lower, 2.12
- PRYREDPCKQDKKKYVKGDVSLCR — higher, 4.4
- PRYREDPCKQQKKKYVKGDVSLCR — higher, 3.75
- PRYREDPCKQPKKKYVKGDVSLCR — higher, 3.99
- PRYREDPCKQVKKKYVKGDVSLCR — higher, 3.11
- PRYREDPCKQGKKKYVKGDVSLCR — higher, 3.91
- PRYREDPCKQNKKKYVKGDVSLCR — higher, 4.14
- PRYREDPCKQYKKKYVKGDVSLCR — higher, 2.76
- PRYREDPCKQEKKKYVKGDVSLCR — higher, 3.91
- PRYREDPCKQHKKKYVKGDVSLCR — higher, 3.68
- PRYREDPCKQAKKKYVKGDVSLCR — higher, 3.23
- PRYREDPCKQTKKKYVKGDVSLCR — higher, 3.57
- PRYREDICKQCKKKYVKGDVSLCR — lower, 2.38
- PRYREDNCKQCKKKYVKGDVSLCR — higher, 2.94
- PRYREDGCKQCKKKYVKGDVSLCR — higher, 2.7
- PRYREDMCKQCKKKYVKGDVSLCR — lower, 2.42
- PRYREDFCKQCKKKYVKGDVSLCR — lower, 2.22
- PRYREDACKQCKKKYVKGDVSLCR — higher, 2.8
- PRYREDCCKQCKKKYVKGDVSLCR — lower, 2.26
- PRYREDWCKQCKKKYVKGDVSLCR — higher, 3.07
- PRYREDDCKQCKKKYVKGDVSLCR — higher, 2.85
- PRYREDSCKQCKKKYVKGDVSLCR — higher, 2.69
- PRYREDRCKQCKKKYVKGDVSLCR — lower, 2.31
- PRYREDLCKQCKKKYVKGDVSLCR — lower, 1.85
- PRYREDQCKQCKKKYVKGDVSLCR — lower, 2.23
- PRYREDTCKQCKKKYVKGDVSLCR — lower, 2.18
- PRYREDHCKQCKKKYVKGDVSLCR — lower, 2.23
- PRYREDYCKQCKKKYVKGDVSLCR — lower, 2.44
- PRYREDVCKQCKKKYVKGDVSLCR — lower, 2.19
- PRYREDKCKQCKKKYVKGDVSLCR — higher, 2.51
- PRYREDECKQCKKKYVKGDVSLCR — higher, 2.76
- PRYREDPCKQCKFKYVKGDVSLCR — higher, 2.55
- PRYREDPCKQCKEKYVKGDVSLCR — higher, 2.69
- PRYREDPCKQCKCKYVKGDVSLCR — lower, 2.23
- PRYREDPCKQCKDKYVKGDVSLCR — higher, 2.63
- PRYREDPCKQCKHKYVKGDVSLCR — lower, 2.35
- PRYREDPCKQCKAKYVKGDVSLCR — higher, 2.51
- PRYREDPCKQCKGKYVKGDVSLCR — higher, 2.68
- PRYREDPCKQCKIKYVKGDVSLCR — lower, 2.05
- PRYRYDPCKQCKKKYVKGDVSLCR — higher, 2.51
- PRYRMDPCKQCKKKYVKGDVSLCR — higher, 2.66
- PRYRADPCKQCKKKYVKGDVSLCR — higher, 2.66
- PRYRDDPCKQCKKKYVKGDVSLCR — higher, 2.94
- PRYRTDPCKQCKKKYVKGDVSLCR — higher, 2.67
- PRYRSDPCKQCKKKYVKGDVSLCR — higher, 2.58
- PRYRIDPCKQCKKKYVKGDVSLCR — the same, 2.46
- PRYRFDPCKQCKKKYVKGDVSLCR — higher, 2.57
- PRYRNDPCKQCKKKYVKGDVSLCR — higher, 2.58
- PRYRLDPCKQCKKKYVKGDVSLCR — higher, 2.78
- PRYRWDPCKQCKKKYVKGDVSLCR — lower, 2.33
- PRYRRDPCKQCKKKYVKGDVSLCR — higher, 2.8
- PRYRHDPCKQCKKKYVKGDVSLCR — higher, 2.76
- PRYRVDPCKQCKKKYVKGDVSLCR — higher, 2.83
- PRYRKDPCKQCKKKYVKGDVSLCR — higher, 3.27
- PRYRGDPCKQCKKKYVKGDVSLCR — higher, 2.68
- PRYRCDPCKQCKKKYVKGDVSLCR — higher, 2.7
- PRYRPDPCKQCKKKYVKGDVSLCR — higher, 2.77
- PRYRQDPCKQCKKKYVKGDVSLCR — higher, 2.83
- PRYREWPCKQCKKKYVKGDVSLCR — lower, 1.98
- PRYRECPCKQCKKKYVKGDVSLCR — higher, 2.61
- PRYREFPCKQCKKKYVKGDVSLCR — lower, 2.35
- PRYRELPCKQCKKKYVKGDVSLCR — lower, 2.15
- PRYREAPCKQCKKKYVKGDVSLCR — the same, 2.46
- PRYRETPCKQCKKKYVKGDVSLCR — higher, 2.61
- PRYREEPCKQCKKKYVKGDVSLCR — higher, 3.14
- PRYREYPCKQCKKKYVKGDVSLCR — lower, 2.3
- PRYREVPCKQCKKKYVKGDVSLCR — higher, 2.58
- PRYRERPCKQCKKKYVKGDVSLCR — higher, 3.19
- PRYRESPCKQCKKKYVKGDVSLCR — higher, 2.5
- PRYRENPCKQCKKKYVKGDVSLCR — lower, 1.92
- PRYREQPCKQCKKKYVKGDVSLCR — higher, 3.71
- PRYREHPCKQCKKKYVKGDVSLCR — higher, 2.61
- PRYREIPCKQCKKKYVKGDVSLCR — lower, 2.21
- PRYREPPCKQCKKKYVKGDVSLCR — lower, 2.22
- PRYREKPCKQCKKKYVKGDVSLCR — higher, 3.06
- PRYREGPCKQCKKKYVKGDVSLCR — higher, 2.48
- PRYREMPCKQCKKKYVKGDVSLCR — higher, 2.92
- PRYREDPCKACKKKYVKGDVSLCR — higher, 2.79
- PRYREDPCKPCKKKYVKGDVSLCR — higher, 3.13
- PRYREDPCKSCKKKYVKGDVSLCR — higher, 3.13
- PRYREDPCKRCKKKYVKGDVSLCR — higher, 2.75
- PRYREDPCKFCKKKYVKGDVSLCR — lower, 1.77
- PRYREDPCKMCKKKYVKGDVSLCR — lower, 2.09
- PRYREDPCKICKKKYVKGDVSLCR — lower, 2.13
- PRYREDPCKTCKKKYVKGDVSLCR — higher, 2.78
- PRYREDPCKYCKKKYVKGDVSLCR — higher, 2.72
- PRYREDPCKGCKKKYVKGDVSLCR — higher, 3.31
- PRYREDPCKECKKKYVKGDVSLCR — higher, 2.87
- PRYREDPCKLCKKKYVKGDVSLCR — lower, 2.04
- PRYREDPCKCCKKKYVKGDVSLCR — lower, 2.13
- PRYREDPCKWCKKKYVKGDVSLCR — higher, 2.69
- PRYREDPCKNCKKKYVKGDVSLCR — higher, 2.64
- PRYREDPCKDCKKKYVKGDVSLCR — higher, 2.83
- PRYREDPCKKCKKKYVKGDVSLCR — higher, 2.81
- PRYREDPCKHCKKKYVKGDVSLCR — lower, 2.39
- PRYREDPCKVCKKKYVKGDVSLCR — higher, 3.28
